Data on 14 molecules can be found in publication PMC10351726 (PLOS ONE, 2023).

What all share (settings): both partners purified
For one assay, the target named is T1, mouse HER2-ECD-Fc (Mus musculus, UniProt P70424).
T1 construct: mouse HER2 (ErbB2), extracellular domain; also called murine HER2-ECD; recombinant murine HER2-ECD; source: bought: R&D systems
The assay is described as follows: ELISA; microplates coated with human or mouse HER2-ECD-Fc, blocked with 1% BSA at room temperature; NM-02 serially diluted from 160 nM; detected with mouse anti-HA and anti-mouse IgG-alkaline phosphatase. A general note: An ELISA detects its analyte on a solid surface through an enzyme-linked reagent.

The target in assay [1] is T2, human HER2-ECD-Fc (Homo sapiens, UniProt P04626).
T2 construct: human epidermal growth factor receptor-2 (HER2), extracellular domain; The supplier is named only for the cross-reactivity ELISA; also called recombinant human HER2-Fc; recombinant human HER2-ECD; source: bought: R&D systems
Described as above.

In assay [2] the target is T3, HER2-ECD biotinylated at single site (Homo sapiens, UniProt P04626, biotinylated at single site).
T3 construct: human HER2 extracellular domain; also called ECD of HER2; source: bought: Sino Biological
The assay is described as follows: SPR; Biacore 8K; biotinylated HER2-ECD on a streptavidin chip; sdAbs injected in multi-cycle kinetics, 2-fold dilution series from 5 nM; 100 μL/min, 25°C, HBS-EP+ pH 7.4; 1:1 model. (SPR reads the build-up and loss of mass on a sensor chip optically.)

The target of assay [3] is T2, human HER2-ECD-Fc. Kind of assay: ELISA; recombinant human HER2-Fc (1 μg/mL) coated on a MaxiSorp plate; His-tagged sdAb pre-incubated 7 days at 37°C in human, mouse or cynomolgus serum or PBS, then serially diluted; detected with anti-HIS-HRP.

T1 sequence (P70424 23-653): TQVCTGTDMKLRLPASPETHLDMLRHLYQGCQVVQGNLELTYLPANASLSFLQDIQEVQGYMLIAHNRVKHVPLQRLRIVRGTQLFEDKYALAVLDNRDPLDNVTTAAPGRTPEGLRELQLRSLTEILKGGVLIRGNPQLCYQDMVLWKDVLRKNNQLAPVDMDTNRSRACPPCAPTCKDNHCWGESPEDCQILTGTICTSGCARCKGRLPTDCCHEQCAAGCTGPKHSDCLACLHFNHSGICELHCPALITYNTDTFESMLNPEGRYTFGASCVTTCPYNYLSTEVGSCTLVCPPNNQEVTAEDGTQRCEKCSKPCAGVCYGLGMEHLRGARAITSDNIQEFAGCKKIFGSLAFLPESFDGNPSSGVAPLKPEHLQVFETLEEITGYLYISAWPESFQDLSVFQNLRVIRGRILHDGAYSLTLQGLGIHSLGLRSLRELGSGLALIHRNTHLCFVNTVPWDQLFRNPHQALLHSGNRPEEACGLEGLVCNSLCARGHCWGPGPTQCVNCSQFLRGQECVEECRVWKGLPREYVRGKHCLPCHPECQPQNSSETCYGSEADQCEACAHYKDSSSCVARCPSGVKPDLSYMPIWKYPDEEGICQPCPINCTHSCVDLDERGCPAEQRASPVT

B1: NanoMab-02 (NM-02), HA- and His-tagged (VHH)
VHH: QVQLQESGGGSVQAGETLRLSCTASGFTFDDSDMGWYRQAPGNECELVSSISSDGSTYYADSVKGRFTISQDNAKNTVYLQMNSLKPEDTGVYYCAAEGHRYELGTCAALDYWGRGTQVTVSS
notes: camel (Camelus bactrianus) anti-HER2 single-domain antibody from a phage display library; In the ELISA and flow cytometry it was detected through the HA tag only; The microarray used the dual His6 + HA version (methods: 'either HA- and/or His-tagged'); also called dual tagged version of NM-02; duel-tagged NM-02
In general, EC50 refers to the concentration at which the effect is half-maximal. Higher therefore signals a less potent agent. Take B1: the binding result with mouse HER2-ECD-Fc is on record as “no binding (tested: 160 nM)”. This molecule also returned an EC50 in the assay with human HER2-ECD-Fc [1] of 1.2 nM.

B2: humanised NM-02 variant L (VHH)
VHH: QVQLQESGGGLVQPGGSLRLSCSASGFTFDDSDMGWYRQAPGNECELVSSISSDGSTYYADSVKGRFTISQDNAKNTLYLQMNSLRAEDTGVYYCAAEGHRYELGTCAALDYWGRGTLVTVSS
notes: humanised variant L of NM-02, with parental back mutations; source: ExpiCHO-S, transiently transfected, purified (HisTrap Excel, SEC)
Regarding B2, in assay [2], the binding result is listed as “binds”.

B3: humanised NM-02 variant H (VHH)
VHH: QVQLQESGGGSVQPGGSLRLSCSASGFTFDDSDMGWYRQAPGNECELVSSISSDGSTYYADSVKGRFTISQDNSKNTLYLQMNSLRAEDTAVYYCAAEGHRYELGTCAALDYWGRGTLVTVSS
notes: humanised variant H of NM-02, with parental back mutations; source: ExpiCHO-S, transiently transfected, purified (HisTrap Excel, SEC)
Turning to B3, in assay [2], the binding result was “binds”.

B4: humanised NM-02 variant J (VHH)
VHH: QVQLQESGGGSVQPGGSLRLSCSASGFTFDDSDMGWYRQAPGNECELVSSISSDGSTYYADSVKGRFTISQDNSKNTLYLQMNSLRAEDTGVYYCAAEGHRYELGTCAALDYWGRGTQVTVSS
notes: humanised variant J of NM-02, with parental back mutations; source: ExpiCHO-S, transiently transfected, purified (HisTrap Excel, SEC)
B4: in assay [2], the binding result is “binds”.

B5: humanised NM-02 variant E (VHH)
VHH: QVQLQESGGGLVQPGGSLRLSCSASGFTFDDSDMGWYRQAPGNECELVSSISSDGSTYYADSVKGRFTISQDNSKNTLYLQMNSLRAEDTGVYYCAAEGHRYELGTCAALDYWGRGTLVTVSS
notes: humanised variant E of NM-02, 83.5% human identity; also called mid-humanised candidate; source: ExpiCHO-S, transiently transfected, purified (HisTrap Excel, SEC)
Take B5: the binding result in assay [2] is on record as “binds”.

B6: humanised NM-02 variant M (VHH)
VHH: QVQLQESGGGLVQPGGSLRLSCSASGFTFDDSDMGWYRQAPGNECELVSSISSDGSTYYADSVKGRFTISQDNSKNTVYLQMNSLRAEDTGVYYCAAEGHRYELGTCAALDYWGRGTLVTVSS
notes: humanised variant M of NM-02, with parental back mutations; source: ExpiCHO-S, transiently transfected, purified (HisTrap Excel, SEC)
B6: in assay [2], the binding result was “binds”.

B7: humanised NM-02 variant I (VHH)
VHH: QVQLQESGGGLVQPGGSLRLSCSASGFTFDDSDMGWYRQAPGNECELVSSISSDGSTYYADSVKGRFTISQDNSKNTLYLQMNSLRAEDTGVYYCAAEGHRYELGTCAALDYWGRGTQVTVSS
notes: humanised variant I of NM-02, with parental back mutations; source: ExpiCHO-S, transiently transfected, purified (HisTrap Excel, SEC)
Consider B7, for which, in assay [2], the binding result is on record as “binds”.

B8: humanised NM-02 variant N (VHH)
VHH: QVQLQESGGGLVQPGGSLRLSCSASGFTFDDSDMGWYRQAPGNECELVSSISSDGSTYYADSVKGRFTISQDNSKNTLYLQMNSLRPEDTGVYYCAAEGHRYELGTCAALDYWGRGTLVTVSS
notes: humanised variant N of NM-02, with parental back mutations; source: ExpiCHO-S, transiently transfected, purified (HisTrap Excel, SEC)
As for B8, the binding result in assay [2] is “binds”.

B9: humanised NM-02 variant D (VHH)
VHH: QVQLQESGGGLVQPGGSLRLSCAASGFTFDDSDMGWYRQAPGNECELVSSISSDGSTYYADSVKGRFTISQDNSKNTLYLQMNSLRAEDTGVYYCAAEGHRYELGTCAALDYWGRGTLVTVSS
notes: humanised variant D of NM-02; source: ExpiCHO-S, transiently transfected, purified (HisTrap Excel, SEC)
Take B9: the binding result in assay [2] was “binds”.

B10: humanised NM-02 variant B (VHH)
VHH: QVQLQESGGGLVQPGETLRLSCAASGFTFDDSDMGWYRQAPGNECELVSSISSDGSTYYADSVKGRFTISQDNSKNTLYLQMNSLRAEDTGVYYCAAEGHRYELGTCAALDYWGRGTLVTVSS
notes: humanised variant B of NM-02; source: ExpiCHO-S, transiently transfected, purified (HisTrap Excel, SEC)
On to B10, for which, in assay [2], the binding result is “binds”.

B11: lead humanised NM-02 candidate (variant K) (VHH)
VHH: QVQLQESGGGLVQPGGSLRLSCTASGFTFDDSDMGWYRQAPGNECELVSSISSDGSTYYADSVKGRFTISQDNSKNTLYLQMNSLRAEDTGVYYCAAEGHRYELGTCAALDYWGRGTLVTVSS
notes: humanised variant K of NM-02, 82.5% human identity; also called humanised variant K; humanised lead; source: ExpiCHO-S, transiently transfected, purified (HisTrap Excel, SEC); not shown: His-tag (with short GSG linker), C-terminal, kept
Broadly, the Kd is the constant that tells how readily two partners part at equilibrium. Low values mean higher affinity, high ones lower affinity. As to B11, in assay [2], binding was characterised by a dissociation constant (Kd) of 0.212 nM and the “fold more potent than variant E” value is not below 2 fold. Also, the “fold drop-off of activity after 7 days at 37°C in human serum versus PBS” value with human HER2-ECD-Fc [3] came to 1.5 fold.

B12: humanised NM-02 variant G (VHH)
VHH: QVQLQESGGGLVQPGGSLRLSCSASGFTFDDSDMGWYRQAPGNECELVSSISSDGSTYYADSVKGRFTISQDNSKNTLYLQMNSLRAEDTAVYYCAAEGHRYELGTCAALDYWGRGTQVTVSS
notes: humanised variant G of NM-02, with parental back mutations; source: ExpiCHO-S, transiently transfected, purified (HisTrap Excel, SEC)
For B12, the binding result in assay [2] is recorded as “binds”.

B13: NanoMab-02 (NM-02) (VHH)
VHH: QVQLQESGGGSVQAGETLRLSCTASGFTFDDSDMGWYRQAPGNECELVSSISSDGSTYYADSVKGRFTISQDNAKNTVYLQMNSLKPEDTGVYYCAAEGHRYELGTCAALDYWGRGTQVTVSS
notes: camel (Camelus bactrianus) anti-HER2 single-domain antibody; residues Gln3 to Ser123 modelled in the structure; The humanised variants were made in ExpiCHO-S with a C-terminal GSG-His tag, and the parent run beside them may have the same format; also called parent; wild type NM-02
In the case of B13, the dissociation constant (Kd) in assay [2] was approximately 0.2 nM.

B14: humanised NM-02 variant F (VHH)
VHH: QVQLQESGGGLVQPGGSLRLSCSASGFTFDDSDMGWYRQAPGNECELVSSISSDGSTYYADSVKGRFTISQDNSKNTLYLQMNSLRAEDTAVYYCAAEGHRYELGTCAALDYWGRGTLVTVSS
notes: humanised variant F of NM-02; source: ExpiCHO-S, transiently transfected, purified (HisTrap Excel, SEC)
Regarding B14, the binding result in assay [2] was “binds”.
